Laboratory results as given in the supplement of paper PMC9732359.
± gives the uncertainty stated by the source.

Experiment: protein stability index of a GFP-peptide fusion (yeast GPS) (PSI 1-4); higher = more stable; sorted into four equal gates, so the index is relative within each strain
Method in brief: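 Plasmids isolated from each sorting gate were PCR-amplified and Illumina-sequenced, and barcodes assigned the reads to strains. The gates, four of equal size, were set by GFP/Cherry fluorescence ratio on mid-log cultures in leucine-free medium. These cultures were yeast carrying a pooled library of tiled 17-residue yeast protein peptides fused downstream of GFP on a plasmid that also expresses Cherry. The protein stability index is the sum of every gate's read frequency times its gate number.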

Sequence | protein stability index (doa10∆) | protein stability index (pdr5∆) | protein stability index (san1∆) | protein stability index (ubr1∆)
NKSFIVDQGQIYRDRST [ITC1] | 3.1 ± 0.11 | 3.35 ± 0.12 | 3.32 ± 0.064 | 3.32 ± 0.052
IVKRLYEYGAVSVLLIS [BRR2] | 2.57 ± 0.061 | 2.39 ± 0.055 | 2.24 ± 0.099 | 1.64 ± 0.054
MAFQKDAKSSAYSSRFQ [RPL5] | 2.67 ± 0.11 | 2.89 ± 0.072 | 3.02 ± 0.061 | 2.92 ± 0.064
DFKEVEDFLHFIVAEYI [SRB4] | 2.73 ± 0.071 | 3.22 ± 0.11 | 3.13 ± 0.056 | 3.14 ± 0.056
VDIDDPDMMVDSFTMPN [SNF2] | 3.27 ± 0.11 | 2.86 ± 0.094 | 2.71 ± 0.085 | 3.15 ± 0.089
KSTYRTPNFDDVLKENN [RIP1] | 1.54 ± 0.087 | 1.45 ± 0.12 | 1.38 ± 0.14 | 2.1 ± 0.079
EPENNTVIEGVKEESQP [SWI3] | 3.21 ± 0.095 | 3.13 ± 0.092 | 3.08 ± 0.059 | 2.99 ± 0.081
SHILNSHSLALNEITNS [DSN1] | 2.14 ± 0.033 | 2.41 ± 0.035 | 2.28 ± 0.037 | 2.36 ± 0.03
NTSIAQFDIQSPLYMDT [YML103C/NUP188] | 2.99 ± 0.08 | 2.89 ± 0.049 | 2.08 ± 0.081 | 3.01 ± 0.058
DKKKGQNVTSETHSKKR [ITC1] | 3.1 ± 0.087 | 3.12 ± 0.076 | 3.16 ± 0.061 | 3.04 ± 0.039
QGITRNVVNYLSINKNF [RPC17] | 1.31 ± 0.059 | 1.62 ± 0.051 | 1.23 ± 0.093 | 1.52 ± 0.038
TPQQLQMIQQRHQQLLR [SNF5] | 1.9 ± 0.044 | 2.32 ± 0.045 | 2.04 ± 0.052 | 1.74 ± 0.045
TLVNKSTGLKSASDALK [RPS1A] | 2.94 ± 0.11 | 3.1 ± 0.11 | 3.42 ± 0.092 | 3.23 ± 0.074
NLMGNRNNHNSNTSTSK [SNF12] | 3 ± 0.073 | 3.17 ± 0.096 | 2.92 ± 0.12 | 3.07 ± 0.054
SSTDIPSYTHVLISKLS [RRI1] | 2.13 ± 0.045 | 2.42 ± 0.048 | 2.42 ± 0.049 | 2.35 ± 0.037
YESIATYASVTGLFTLE [RPN7] |  |  |  | 1.96 ± 0.29
LIKNGKKVTAFVPNDGC [RPS23A] | 3.03 ± 0.11 | 3.31 ± 0.061 | 3.45 ± 0.039 | 3.38 ± 0.054
LVSLFEDTNLAAIHAKR [HHT1] | 2.9 ± 0.17 | 2.67 ± 0.17 | 2.56 ± 0.12 | 2.81 ± 0.063
GVWVRYDSRSGTHNMYK [RPL20A] |  | 2.3 ± 0.26 | 3.1 ± 0.29 | 
IDDRDYVGNKRLELAGQ [RET1] | 3.22 ± 0.15 | 3.47 ± 0.11 | 3.05 ± 0.12 | 3.58 ± 0.13
ASTGSGKTLAFVIPILI [PRP28] | 1.47 ± 0.069 | 1.29 ± 0.079 | 1.48 ± 0.17 | 3.09 ± 0.1
ENELFNDRKQTTVSNDL [SSN2] | 2.74 ± 0.16 | 3.14 ± 0.079 | 3.11 ± 0.06 | 3.02 ± 0.081
MQHNPLAGKRGPKSGST [PGD1] | 2.94 ± 0.064 | 2.74 ± 0.057 | 2.85 ± 0.063 | 2.96 ± 0.048
HKLDLAKRNLDANPSSQ [SMC2] | 1.86 ± 0.052 | 2.24 ± 0.065 | 1.67 ± 0.091 | 1.66 ± 0.035
KSMLSKPETLSIGKNPF [SWI3] | 2.69 ± 0.053 | 2.91 ± 0.054 | 2.6 ± 0.05 | 2.9 ± 0.037

Sequence | protein stability index (doa10∆) | protein stability index (pdr5∆) | protein stability index (san1∆) | protein stability index (ubr1∆)
IDYALTAVKQGVTSLGI [PRE8] | 2.27 ± 0.072 | 2.07 ± 0.056 | 1.93 ± 0.071 | 1.62 ± 0.085
EQKLIDQHVINILWAIY [YCS4] | 1.87 ± 0.042 | 2.28 ± 0.04 | 1.93 ± 0.053 | 1.68 ± 0.035
WTMAFRTMDDIKDSVRE [ECM29] |  | 2.5 ± 0.16 | 2.67 ± 0.11 | 2.66 ± 0.12
VLSINPDMYERKVENIR [MED7] | 2.81 ± 0.08 | 3.03 ± 0.086 | 2.79 ± 0.052 | 2.79 ± 0.062
QMDQQLQYTALTGSPNN [ARP7] | 2.91 ± 0.11 | 3.36 ± 0.096 | 3.33 ± 0.071 | 3.13 ± 0.063
EQVLSAAATFPIAQPAT [RPL13A] | 2.66 ± 0.059 | 2.24 ± 0.057 | 1.74 ± 0.084 | 2.54 ± 0.043
AEKKIPLVIRRYLPDGS [RPO26] | 2.79 ± 0.09 | 2.54 ± 0.12 | 3.45 ± 0.066 | 
PVNSADGKEDVEKGTPL [SME1] | 3.45 ± 0.12 | 3.25 ± 0.21 | 3.52 ± 0.058 | 
VIMALMLMSKIGDVDGL [POP5] | 1.49 ± 0.044 | 2 ± 0.053 | 1.84 ± 0.1 | 1.97 ± 0.047
TMTISHLLLGFQVSNVI [YJL039C/NUP192] | 1.41 ± 0.038 | 1.72 ± 0.039 | 1.75 ± 0.06 | 1.77 ± 0.034
LTKYIRSKNLIFNGETL [GRR1] | 2.52 ± 0.086 | 2.43 ± 0.06 | 1.92 ± 0.078 | 1.91 ± 0.06
SHPEKRMIPPRMVRSIM [SSN3] | 3.25 ± 0.1 | 3.01 ± 0.075 | 2.33 ± 0.065 | 3.19 ± 0.066
KAIFQFVCRGMAATQTI [ECM29] | 1.52 ± 0.051 | 1.73 ± 0.048 | 1.46 ± 0.17 | 1.48 ± 0.049
CDVFWVQKDTAIIRLHP [POP1] | 2.29 ± 0.079 | 2.62 ± 0.097 | 2.5 ± 0.095 | 2.58 ± 0.079
WPIVQKTYEPVLNEDDL [RPN5] | 2.32 ± 0.068 | 2.59 ± 0.11 | 1.85 ± 0.098 | 2.27 ± 0.071
VSRGQSAVLLETTLGEM [PRP8] | 2.13 ± 0.12 | 2.36 ± 0.15 |  | 
YTLTEEGVEYLREYLNL [RPS10A] | 3.28 ± 0.11 | 3.37 ± 0.095 | 3.51 ± 0.16 | 3.39 ± 0.12
KPYVDRFAFSVIWELDD [DIS3] | 1.93 ± 0.046 | 1.98 ± 0.047 | 2.15 ± 0.05 | 2.38 ± 0.034
EILNECHDELKALPMLE [MED4] | 2.52 ± 0.11 | 2.95 ± 0.16 | 2.59 ± 0.083 | 3.09 ± 0.088
SVTAQVYKIALRLTEQK [RPC82] | 1.79 ± 0.15 | 2.19 ± 0.14 | 2.22 ± 0.19 | 
PLASEESLTNSNMFDNS [YGL100W/SEH1] | 3.38 ± 0.18 | 3.02 ± 0.19 | 3.07 ± 0.12 | 3.29 ± 0.086
IDSTDHIRKASSKKSKR [LRP1] | 2.15 ± 0.046 | 1.99 ± 0.039 | 1.83 ± 0.058 | 2.14 ± 0.038
GEICKNYELEKIADNIS [YDL116W/NUP84] | 3.13 ± 0.098 | 3.12 ± 0.084 | 2.96 ± 0.061 | 3.09 ± 0.061
NIDYQKGLLIWRLLFID [GRR1] | 1.9 ± 0.06 | 1.28 ± 0.063 | 1.22 ± 0.2 | 1.45 ± 0.068
TGWNAKTYGISDDIISQ [FAS2] | 1.99 ± 0.14 | 1.12 ± 0.12 | 1.72 ± 0.24 | 1.2 ± 0.091

Sequence | protein stability index (doa10∆) | protein stability index (pdr5∆) | protein stability index (san1∆) | protein stability index (ubr1∆)
QDDDFPLDDAGTIGWDL [MCD1] | 3.04 ± 0.08 | 3.25 ± 0.081 | 3.36 ± 0.06 | 3.06 ± 0.068
QPTPRSASNTAKSTPNT [GAL11] | 2.75 ± 0.061 | 2.93 ± 0.05 | 2.75 ± 0.058 | 2.55 ± 0.048
TVWSANFEYDLSEYDAI [YOR098C/NUP1] | 2.86 ± 0.27 | 3.31 ± 0.19 | 2.98 ± 0.27 | 3.06 ± 0.1
PIAASTDLPIETAAMAS [RPN1] | 1.48 ± 0.041 | 1.64 ± 0.052 | 1.53 ± 0.06 | 1.71 ± 0.058
FLQHPDEEYPVKVKVSY [PRP8] | 3.24 ± 0.083 | 3.18 ± 0.11 | 3.21 ± 0.082 | 2.63 ± 0.063
AFGFVDRTLPHFSKDDY [RPO21] | 2.81 ± 0.068 | 3.17 ± 0.05 | 2.85 ± 0.052 | 3.16 ± 0.035
ISPSAPSKDSFTKYKPA [YAR002W/NUP60] | 2.65 ± 0.079 | 2.9 ± 0.069 | 2.69 ± 0.094 | 2.98 ± 0.042
LETLFNRWHSESWANQL [FAS2] | 2.81 ± 0.055 | 2.89 ± 0.076 | 2.87 ± 0.055 | 3.02 ± 0.056
NANEISANTNNTCTIST [SWP82] | 2.61 ± 0.041 | 2.61 ± 0.045 | 2.9 ± 0.04 | 2.62 ± 0.031
KAGVEAISQSLRDESLT [PRE5] | 3.05 ± 0.079 | 3.09 ± 0.082 | 3.37 ± 0.082 | 3.07 ± 0.067
QRILEVLGTPDQKIWPY [SSN3] | 2.2 ± 0.076 | 1.45 ± 0.057 | 1.76 ± 0.093 | 1.6 ± 0.068
IVLDEVRNKSYPVYTRL [DIS3] | 2.93 ± 0.051 | 2.65 ± 0.056 | 2.99 ± 0.067 | 1.69 ± 0.027
PSENLLNIRIQTYGETT [RPC19] | 1.85 ± 0.27 | 1.18 ± 0.13 |  | 1.33 ± 0.26
ARTATVSKKWAAAGVCE [RPL14B] | 2.9 ± 0.089 | 3.21 ± 0.084 | 3.58 ± 0.11 | 2.72 ± 0.066
TVYSSEQYIQELDKRED [SMC3] | 2.76 ± 0.18 | 3.26 ± 0.24 |  | 3.47 ± 0.25
IASMSTVRASSLQDLIY [SMC2] | 1.92 ± 0.069 | 2.33 ± 0.1 | 2.53 ± 0.092 | 2.25 ± 0.037
AKGKSGVQTAYIDYSSK [RRP40] | 2.54 ± 0.24 |  |  | 2.91 ± 0.24
TIRTRKVISNPLLARKQ [RPS24A] | 1.74 ± 0.1 | 1.88 ± 0.066 | 2.35 ± 0.13 | 1.87 ± 0.089
EINETEFIRCGCLIKNL [RMP1] | 2.48 ± 0.11 | 2.98 ± 0.096 | 2.82 ± 0.099 | 2.91 ± 0.055
KAKYNTPKYRLVVRFTN [RPL5] | 1.39 ± 0.049 | 1.53 ± 0.073 | 1.24 ± 0.21 | 1.12 ± 0.068
FEGNALIRRLVRVGVLS [RPS9A] | 2.44 ± 0.1 | 2.52 ± 0.18 |  | 1.15 ± 0.17
LDSLMKTTRLLLIIRSL [YJL039C/NUP192] | 1.63 ± 0.044 | 1.39 ± 0.039 | 1.32 ± 0.077 | 1.27 ± 0.04
RIVGSELIQKYLGDGPR [RPT2] | 2.21 ± 0.14 | 3.14 ± 0.16 | 3.33 ± 0.27 | 3.11 ± 0.13
QIISGNRVPDGFQDRSL [RPO31] | 3.17 ± 0.13 | 3.13 ± 0.13 | 3.06 ± 0.08 | 3.38 ± 0.2
